Measured values published in publication PMC6831621, “Structural Insight Into Chitin Degradation and Thermostability of a Novel Endochitinase From the Glycoside Hydrolase Family 18” (Frontiers in Microbiology, 2019).

B1: Chi23 (Pseudoalteromonas aurantia; G79A) (protein)
chain: MSKTITYYNSGAVPLINASELPYDVVNLAFLSSSSNNPFNLVLSGAIAATESSFTTNTIEAIKVMQHKGQKVLISFGGATMGSNAYRSLSEDTAKLADSLASFVKNNQLDGVDIDYEDTAAFTGQAGYDGAQFLISLTQELRKRLPSPDYIISHAPQPPYLEQGGYMAGYVEVVELVGQEIDWLNVQFYNNPPWSANPDQIVSSYLNYTKLPNMSPEKVIAGFPVTQNDAGSGYMPVQTIINEVIKPIQQQSSLGGIMNWQFSSDHNGDWIKAIAQSLNS
notes: pET22b NdeI/XhoI, His-tagged (C-terminal by primer design), E. coli BL21(DE3); monomer; forward primer encodes MSKTITYYNS, reverse primer encodes AQSLNS at the C-terminus
B2: Chi23 (Pseudoalteromonas aurantia; N190A) (protein)
chain: MSKTITYYNSGAVPLINASELPYDVVNLAFLSSSSNNPFNLVLSGAIAATESSFTTNTIEAIKVMQHKGQKVLISFGGGTMGSNAYRSLSEDTAKLADSLASFVKNNQLDGVDIDYEDTAAFTGQAGYDGAQFLISLTQELRKRLPSPDYIISHAPQPPYLEQGGYMAGYVEVVELVGQEIDWLNVQFYANPPWSANPDQIVSSYLNYTKLPNMSPEKVIAGFPVTQNDAGSGYMPVQTIINEVIKPIQQQSSLGGIMNWQFSSDHNGDWIKAIAQSLNS
notes: as for B1
B3: Chi23 (Pseudoalteromonas aurantia; Q261A) (protein)
chain: MSKTITYYNSGAVPLINASELPYDVVNLAFLSSSSNNPFNLVLSGAIAATESSFTTNTIEAIKVMQHKGQKVLISFGGGTMGSNAYRSLSEDTAKLADSLASFVKNNQLDGVDIDYEDTAAFTGQAGYDGAQFLISLTQELRKRLPSPDYIISHAPQPPYLEQGGYMAGYVEVVELVGQEIDWLNVQFYNNPPWSANPDQIVSSYLNYTKLPNMSPEKVIAGFPVTQNDAGSGYMPVQTIINEVIKPIQQQSSLGGIMNWAFSSDHNGDWIKAIAQSLNS
notes: as for B1
B4: Chi23 (Pseudoalteromonas aurantia; D229A) (protein)
chain: MSKTITYYNSGAVPLINASELPYDVVNLAFLSSSSNNPFNLVLSGAIAATESSFTTNTIEAIKVMQHKGQKVLISFGGGTMGSNAYRSLSEDTAKLADSLASFVKNNQLDGVDIDYEDTAAFTGQAGYDGAQFLISLTQELRKRLPSPDYIISHAPQPPYLEQGGYMAGYVEVVELVGQEIDWLNVQFYNNPPWSANPDQIVSSYLNYTKLPNMSPEKVIAGFPVTQNAAGSGYMPVQTIINEVIKPIQQQSSLGGIMNWQFSSDHNGDWIKAIAQSLNS
notes: as for B1
B5: Chi23 (Pseudoalteromonas aurantia) (protein)
chain: MSKTITYYNSGAVPLINASELPYDVVNLAFLSSSSNNPFNLVLSGAIAATESSFTTNTIEAIKVMQHKGQKVLISFGGGTMGSNAYRSLSEDTAKLADSLASFVKNNQLDGVDIDYEDTAAFTGQAGYDGAQFLISLTQELRKRLPSPDYIISHAPQPPYLEQGGYMAGYVEVVELVGQEIDWLNVQFYNNPPWSANPDQIVSSYLNYTKLPNMSPEKVIAGFPVTQNDAGSGYMPVQTIINEVIKPIQQQSSLGGIMNWQFSSDHNGDWIKAIAQSLNS
notes: as for B1
B6: Chi23 (Pseudoalteromonas aurantia; Q157A) (protein)
chain: MSKTITYYNSGAVPLINASELPYDVVNLAFLSSSSNNPFNLVLSGAIAATESSFTTNTIEAIKVMQHKGQKVLISFGGGTMGSNAYRSLSEDTAKLADSLASFVKNNQLDGVDIDYEDTAAFTGQAGYDGAQFLISLTQELRKRLPSPDYIISHAPAPPYLEQGGYMAGYVEVVELVGQEIDWLNVQFYNNPPWSANPDQIVSSYLNYTKLPNMSPEKVIAGFPVTQNDAGSGYMPVQTIINEVIKPIQQQSSLGGIMNWQFSSDHNGDWIKAIAQSLNS
notes: as for B1
B7: Chi23 (Pseudoalteromonas aurantia; N9A) (protein)
chain: MSKTITYYASGAVPLINASELPYDVVNLAFLSSSSNNPFNLVLSGAIAATESSFTTNTIEAIKVMQHKGQKVLISFGGGTMGSNAYRSLSEDTAKLADSLASFVKNNQLDGVDIDYEDTAAFTGQAGYDGAQFLISLTQELRKRLPSPDYIISHAPQPPYLEQGGYMAGYVEVVELVGQEIDWLNVQFYNNPPWSANPDQIVSSYLNYTKLPNMSPEKVIAGFPVTQNDAGSGYMPVQTIINEVIKPIQQQSSLGGIMNWQFSSDHNGDWIKAIAQSLNS
notes: pET22b NdeI/XhoI, His-tagged (C-terminal by primer design), E. coli BL21(DE3); monomer; forward primer encodes …, reverse primer encodes AQSLNS at the C-terminus
B8: Chi23 (Pseudoalteromonas aurantia; T80A) (protein)
chain: MSKTITYYNSGAVPLINASELPYDVVNLAFLSSSSNNPFNLVLSGAIAATESSFTTNTIEAIKVMQHKGQKVLISFGGGAMGSNAYRSLSEDTAKLADSLASFVKNNQLDGVDIDYEDTAAFTGQAGYDGAQFLISLTQELRKRLPSPDYIISHAPQPPYLEQGGYMAGYVEVVELVGQEIDWLNVQFYNNPPWSANPDQIVSSYLNYTKLPNMSPEKVIAGFPVTQNDAGSGYMPVQTIINEVIKPIQQQSSLGGIMNWQFSSDHNGDWIKAIAQSLNS
notes: as for B1

Each protein was assayed on CC(=O)N[C@H]1[C@H](Oc2ccc3c(C)cc(=O)oc3c2)O[C@H](CO)[C@@H](O[C@@H]2O[C@H](CO)[C@@H](O)[C@H](O)[C@H]2NC(C)=O)[C@@H]1O (assay: fluorogenic substrate hydrolysis, Michaelis-Menten non-linear fit). Settings: McIlvaine's buffer pH 5.0, substrate 0.01-0.6 mM, temperature not given for kinetics.
Format: biochemical, Pseudoalteromonas aurantia
Description: fluorogenic substrate hydrolysis, Michaelis-Menten non-linear fit on Chi23
With B1 the Km was 72.6 ± 6.9 µM, the Vmax was 0.0576 µmol/min/mg and the kcat was 0.0295 ± 0.0013 s⁻¹.
With B2 the Km was 77.4 ± 16.2 µM, the Vmax was 4e-05 µmol/min/mg and the kcat was 2e-05 ± 2e-06 s⁻¹.
With B3 the Km was 86.3 ± 6.6 µM, the Vmax was 0.0009 µmol/min/mg and the kcat was 0.0005 ± 2e-05 s⁻¹.
For B4, the Km was 80.1 ± 6.3 µM, the Vmax was 0.0027 µmol/min/mg and the kcat was 0.0014 ± 5e-05 s⁻¹.
B5 showed a Km of 64.6 ± 11.7 µM, a Vmax of 0.0107 µmol/min/mg and a kcat of 0.0054 ± 0.0005 s⁻¹.
Work on B6 yielded a Km of 104.1 ± 17.5 µM, a Vmax of 0.0044 µmol/min/mg and a kcat of 0.0022 ± 0.0002 s⁻¹.
With B7 the Km was 90.1 ± 13.4 µM, the Vmax was 0.0042 µmol/min/mg and the kcat was 0.0021 ± 0.0002 s⁻¹.
Work on B8 yielded a Km of 85.6 ± 7.2 µM, a Vmax of 0.0144 µmol/min/mg and a kcat of 0.0073 ± 0.0003 s⁻¹.
